The record followed here is patent publication US20130011875A1.

The target in assay [1] is recombinant human Met-granulocyte colony-stimulating factor (rHuMetGCSF) (Homo sapiens) (UniProt P09919). Nature of the assay: cell-based or functional assay.
For assay [2], the target named is TNFRII-Fc (tumor necrosis factor receptor 2 ectodomain fused to Fc region of IgG1). The experiment in a line: cell-based or functional assay.

Bounds are passed on as bounds.

Sequence of TNFRII-Fc (tumor necrosis factor receptor 2 ectodomain fused to Fc region of IgG1) (chain, as listed by the source limits assumed): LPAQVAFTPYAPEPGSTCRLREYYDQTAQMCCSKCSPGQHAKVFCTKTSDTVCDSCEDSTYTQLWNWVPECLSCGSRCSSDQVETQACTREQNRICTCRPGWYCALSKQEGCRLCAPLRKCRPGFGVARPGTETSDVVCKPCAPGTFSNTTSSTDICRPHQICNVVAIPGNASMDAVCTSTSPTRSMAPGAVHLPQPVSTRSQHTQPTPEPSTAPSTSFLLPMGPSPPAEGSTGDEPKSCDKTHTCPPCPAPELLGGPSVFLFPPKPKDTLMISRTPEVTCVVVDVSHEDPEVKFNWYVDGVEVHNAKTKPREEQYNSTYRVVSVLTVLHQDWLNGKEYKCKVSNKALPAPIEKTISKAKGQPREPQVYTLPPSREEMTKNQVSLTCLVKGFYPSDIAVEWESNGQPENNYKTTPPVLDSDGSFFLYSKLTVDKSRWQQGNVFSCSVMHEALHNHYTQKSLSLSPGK

As to “Pichia pastoris vacuolar protein sorting receptor 10-1 (Vps10-1) (from UniProt C4R192 21-1542)”, in assay [1], the relative rhGCSF titer in fermentation supernatant (GCSF ELISA), vps10-1 deletion mutant yGLY9933 against parental strain yGLY8538 is greater than 7 fold. For the same substance, the relative TNFRII-Fc titer in deep-well plate supernatant (ELISA), vps10-1 deletion mutants yGLY9992 and yGLY9993 against parental wild-type strain yGLY8292 in assay [2] came out at 10 fold.
